Laboratory results reported in patent publication US20210301005A1.

Key:
[1] = biological target: human TGFβ1, mature receptor-binding domain (human) (UniProt P01137)
[2] = biological target: human TGFβ2, mature receptor-binding domain (human)
[3] = biological target: human TGFβ3, mature dimeric form (human) (UniProt P10600)
[4] = biological target: human TGFβ1, mature receptor-binding domain (human) (UniProt P01137); remark: listed apart in the source
[5] = biological target: human TGFβ2, mature receptor-binding domain (human); remark: listed apart in the source
[6] = biological target: human TGFβ3, mature dimeric form (human) (UniProt P10600); remark: listed apart in the source

Fc-LAP1, sequence (P01137 30-278 limits assumed): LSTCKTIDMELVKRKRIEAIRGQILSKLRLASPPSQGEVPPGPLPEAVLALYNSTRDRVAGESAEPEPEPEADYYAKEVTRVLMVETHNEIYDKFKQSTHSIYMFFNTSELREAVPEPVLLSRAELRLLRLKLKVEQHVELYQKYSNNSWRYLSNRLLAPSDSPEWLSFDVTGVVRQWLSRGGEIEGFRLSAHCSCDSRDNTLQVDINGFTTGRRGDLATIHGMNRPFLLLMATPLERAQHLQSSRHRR
human TGFβ1, mature receptor-binding domain (human), sequence (P01137 279-390 limits assumed): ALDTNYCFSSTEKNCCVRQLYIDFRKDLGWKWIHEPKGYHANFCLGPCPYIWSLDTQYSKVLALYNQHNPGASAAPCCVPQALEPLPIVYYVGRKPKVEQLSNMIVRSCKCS
human TGFβ2, mature receptor-binding domain (human), sequence (P09858 303-414 limits assumed): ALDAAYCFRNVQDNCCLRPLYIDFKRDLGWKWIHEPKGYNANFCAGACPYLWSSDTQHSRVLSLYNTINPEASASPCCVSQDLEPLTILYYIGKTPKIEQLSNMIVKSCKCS
human TGFβ3, mature dimeric form (human), sequence (P10600 301-412): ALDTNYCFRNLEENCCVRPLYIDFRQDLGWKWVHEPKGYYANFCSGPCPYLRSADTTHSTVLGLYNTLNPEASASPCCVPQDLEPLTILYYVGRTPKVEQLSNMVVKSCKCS

- IC50 [1]: 96 nM
- IC50 [2]: 64 nM
- IC50 [3]: 43 nM
- IC50 (read off the curve) [4]: 0.1 nM
- IC50 (read off the curve) [5]: 0.07 nM
- IC50 (read off the curve) [6]: 0.04 nM
Substance: Fc-LAP1 (from UniProt P01137 30-278) (Fc fusion)
